Test results taken from patent US20210207126A1 (ADAGENE, published 2021).
Substitutions are numbered along the chain they refer to.

B1: TY21242 (antibody, V domains shown)
VH: EVQLVESGGGLVQPGGSLRLSCAASGFSLSTGGVGVGWIRQAPGKGLEWLALIDWADDKYYSPSLKSRLTISRDNSKNTLYLQLNSLRAEDTAVYYCARGGSDTVIGDWFAYWGQGTLVTVSS
VL: DIQLTQSPSSLSASVGDRVTITCRASQSIGSYLAWYQQKPGKAPKLLIYDASNLETGVPSRFSGSGSGTDFTLTISSLQPEDFATYYCQQGYYLWTFGQGTKVEIK
notes: also called parental antibody TY21242; parental CD137 antibody
B2: TY22591 (antibody, V domains shown)
VH: B1 VH
VL: EVGSYSSTHAHCHHSPANCISSGRSAGGGGSPLGLAGSGGSDIQLTQSPSSLSASVGDRVTITCRASQSIGSYLAWYQQKPGKAPKLLIYDASNLETGVPSRFSGSGSGTDFTLTISSLQPEDFATYYCQQGYYLWTFGQGTKVEIK
notes: Full IgG4 from mammalian cells; peptide fused to the N-terminus of the light chain of TY21242
B3: TY22596 (antibody, V domains shown)
VH: B1 VH
VL: EVGSYYHDYDDCRVLPRRCFNSGRSAGGGGSPLGLAGSGGSDIQLTQSPSSLSASVGDRVTITCRASQSIGSYLAWYQQKPGKAPKLLIYDASNLETGVPSRFSGSGSGTDFTLTISSLQPEDFATYYCQQGYYLWTFGQGTKVEIK
notes: as for B2
B4: TY22598 (antibody, V domains shown)
VH: B1 VH
VL: EVGSYSNNFASCLWRHRSCADSGRSAGGGGSPLGLAGSGGSDIQLTQSPSSLSASVGDRVTITCRASQSIGSYLAWYQQKPGKAPKLLIYDASNLETGVPSRFSGSGSGTDFTLTISSLQPEDFATYYCQQGYYLWTFGQGTKVEIK
notes: as for B2
B5: TY22599 (antibody, V domains shown)
VH: B1 VH
VL: B3 VL with Y6T, H7D, D8N, D11Y, R13P, V14R, P16R, R18K, F20Y, N21H
notes: as for B2
B6: TY22594 (antibody, V domains shown)
VH: B1 VH
VL: B3 VL with Y6D, H7T, D11F, R13P, V14I, P16R, R17H, F20D, N21S
notes: as for B2
B7: TY22595 (antibody, V domains shown)
VH: B1 VH
VL: EVGSYNDYNYHCKWRPSRCHNSGRSAGGGGSPLGLAGSGGSDIQLTQSPSSLSASVGDRVTITCRASQSIGSYLAWYQQKPGKAPKLLIYDASNLETGVPSRFSGSGSGTDFTLTISSLQPEDFATYYCQQGYYLWTFGQGTKVEIK
notes: as for B2
B8: TY22404 (antibody, V domains shown)
VH: EVQLVESGGGLVQPGGSLRLSCAASGYSISSGYHWSWIRQAPGKGLEWLARIDWDDDKYYSTSLKSRLTISRDNSKNTLYLQLNSLRAEDTAVYYCARSYVYFDYWGQGTLVTVSS
VL: EVGSYPNPSSDCVPYYYACAYSGRSAGGGGSPLGLAGSGGSDIQLTQSPSSLSASVGDRVTITCRASQSVRGRFLAWYQQKPGKAPKLLIYDASNRATGIPSRFSGSGSGTDFTLTISSLQPEDFATYYCQQSSSWPPTFGQGTKVEIKR
notes: IgG1 from HEK293F cells; peptide fused to the N-terminus of the light chain of TY21580; also called masking peptide B13197
B9: TY22402 (antibody, V domains shown)
VH: B8 VH
VL: EVGSYIVHHSDCDAFYPYCDSSGRSAGGGGSPLGLAGSGGSDIQLTQSPSSLSASVGDRVTITCRASQSVRGRFLAWYQQKPGKAPKLLIYDASNRATGIPSRFSGSGSGTDFTLTISSLQPEDFATYYCQQSSSWPPTFGQGTKVEIKR
notes: IgG1 from HEK293F cells; peptide fused to the N-terminus of the light chain of TY21580; also called masking peptide B13180
B10: TY22775 (antibody, V domains shown)
VH: B8 VH
VL: EVGHSDCDAFYPYCDSSGRSAGGGGTPLGLAGSGGSDIQLTQSPSSLSASVGDRVTITCRASQSVRGRFLAWYQQKPGKAPKLLIYDASNRATGIPSRFSGSGSGTDFTLTISSLQPEDFATYYCQQSSSWPPTFGQGTKVEIKR
notes: TY22402 with the masking peptide shortened to 16 residues; expressed in mammalian cells; isotype not restated (parent construct IgG1)
B11: TY22776 (antibody, V domains shown)
VH: B8 VH
VL: B10 VL with H4S, D8V, A9P, F10Y, P12Y, Y13A, D15A, S16Y
notes: TY22404 with the masking peptide shortened to 16 residues; expressed in mammalian cells; isotype not restated (parent construct IgG1)
B12: TY22565 (antibody, V domains shown)
VH: B8 VH
VL: B8 VL with N7Q
notes: IgG1; derived from B13197 to remove a potential glycosylation site
B13: TY22566 (antibody, V domains shown)
VH: B8 VH
VL: B8 VL with S9A
notes: as for B12
B14: TY22564 (antibody, V domains shown)
VH: B8 VH
VL: B9 VL with I6Y, V7S, H8A, H9Y, S10P, D11A, A14S, F15H, D20N, S22A
notes: IgG1; derived from B13192 to remove a potential glycosylation site
B15: TY22563 (antibody, V domains shown)
VH: B8 VH
VL: B9 VL with I6Y, V7S, H8A, H9Y, S10P, D11A, A14S, F15H, D20Q
notes: as for B14
B16: TY22401 (antibody, V domains shown)
VH: B8 VH
VL: EVGSYNFVADSCPDHPYPCSASGRSAGGGGSPLGLAGSGGSDIQLTQSPSSLSASVGDRVTITCRASQSVRGRFLAWYQQKPGKAPKLLIYDASNRATGIPSRFSGSGSGTDFTLTISSLQPEDFATYYCQQSSSWPPTFGQGTKVEIKR
notes: IgG1 from HEK293F cells; masking and cleavage peptide fused to the N-terminus of the light chain of TY21580; also called masking peptide B13189

Each binder was assayed against T1, human CD137 displayed on yeast cells (human, UniProt Q07011 24-186, limits assumed) (assay: flow cytometry on yeast cells displaying human CD137, PE anti-human Fc).
T1 construct: Yeast cells displaying human CD137 on their surface; also called human CD137 on the cell surface
Procedure: (§1) The masking efficiency was then measured through flow cytometry. Briefly, yeast cells displaying human CD137 on their surface washed twice with PBSA buffer, and 50 μL (1×10\hat{ }6) cells were dispensed into each well of a 96 well plate. Cells were then incubated with 3-fold serial dilutions of antibodies for 1 hour on ice, washed once with PBSA buffer, and then incubated with 100 μL of PE conjugated mouse anti-human Fc (1 μg/ml) for 30 minutes on ice. The cells were then washed once prior to analysis by flow cytometry (Beckman® CytoFlex).

Going from B1 to B2, the “masking efficiency (against parental TY21242)” value rises from 1 fold to 38.3 fold.

First: B3
Second: B4
The “masking efficiency (against parental TY21242)” value of the first is lower: 20.8 fold for the first, 30.5 fold for the second.

First: B5
Second: B6
The “masking efficiency (against parental TY21242)” value of the first is higher: 348 fold for the first, 83.7 fold for the second.

With B7 the “masking efficiency (against parental TY21242)” value was 379 fold.

Each binder was assayed against T2, Recombinant human CTLA4-Fc (human, UniProt P16410 36-161, limits assumed) (assay: ELISA on plate-coated recombinant human CTLA4-Fc, protease cleavage experiment, no treatment).
T2 construct: Coated on the ELISA plate at 1 ug/mL; also called its antigen; not shown: Fc part
T2 sequence (looked up): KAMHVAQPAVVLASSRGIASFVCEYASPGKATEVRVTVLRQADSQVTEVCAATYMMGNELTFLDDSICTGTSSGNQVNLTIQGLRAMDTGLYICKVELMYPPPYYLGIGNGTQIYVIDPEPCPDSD
Procedure: (§2) Recombinant human CTLA4-Fc was diluted to 1 μg/mL in PBS and coated on a Maxisorp plate at 4° C. overnight. Plates were blocked with PBS supplemented with 3% non-fat milk at 37° C. for 1 hour. After washing, 100 μL of 3-fold serial dilutions of antibodies were added to each well. After incubation at 37° C. for 1 hour, plates were washed four times, and 100 μL HRP conjugated anti-human IgG (Fab specific) (1:6000 dilution) was added to each well. Plates were incubated at 37° C. for 1 hour, washed four times, and then 50 μL TMB substrate solution was added to each well, and the plate was incubated at room temperature. Absorbance at 450 nm was measured after the reactions were stopped with 50 μL H₂SO₄ per well. The EC₅₀ was evaluated by fitting the ELISA data using the asymmetrical sigmoidal (five-parameter logistic equation) model of GraphPad Prism 6 software.
The purified activatable antibodies were treated with the proteases which recognize the cleavage sequences, and were then tested to determine whether removal of the masking peptide restored their activity.

In the case of B8, the “masking efficiency (EC50 / EC50 of parental TY21580)” value is reported as 216 fold.

What follows are binders tested against T2, Recombinant human CTLA4-Fc (assay: ELISA on plate-coated recombinant human CTLA4-Fc as in Example 3 (FIG. 24A)).
Procedure: as §2

Compared with B9, B10 is lower in “masking efficiency (EC50 / EC50 of parental TY21580)” value: 243 fold for the first, 168 fold for the second.

First: B11
Second: B8
The “masking efficiency (EC50 / EC50 of parental TY21580)” value of the first is lower: 296 fold for the first, 308 fold for the second.

Each binder was assayed against T2, Recombinant human CTLA4-Fc (assay: ELISA on plate-coated recombinant human CTLA4-Fc as in Example 3 (FIG. 25)).
Procedure: as §2

In the case of B8, the “masking efficiency (EC50 / EC50 of parental TY21580)” value is reported as 469 fold.

What follows are binders tested against T2, Recombinant human CTLA4-Fc (assay: ELISA on plate-coated recombinant human CTLA4-Fc, before protease cleavage, third block of Table 6 (set of FIG. 7C)).

Compared with B12, B13 is lower in “masking efficiency (EC50 / EC50 of parental TY21580)” value: 632 fold for the first, 489 fold for the second.

Going from B14 to B15, the “masking efficiency (EC50 / EC50 of parental TY21580)” value rises from 117 fold to 144 fold.

The binders below were run against T2, Recombinant human CTLA4-Fc (assay: ELISA on plate-coated recombinant human CTLA4-Fc as in Example 3 (FIG. 24B)).
Procedure: as §2

Compared with B9, B8 is higher in “masking efficiency (EC50 / EC50 of parental TY21580)” value: 554 fold for the first, 572 fold for the second.

The binders below were run against T2, Recombinant human CTLA4-Fc (assay: ELISA on plate-coated recombinant human CTLA4-Fc, before protease cleavage, data batch 2).
Procedure: as §2

Compared with B9, B8 is higher in “masking efficiency (EC50 / EC50 of parental TY21580)” value: 377 fold for the first, 385 fold for the second.

B16 was tested, and the “masking efficiency (EC50 / EC50 of parental TY21580)” value was 48 fold.

Each binder was assayed against T1, human CD137 displayed on yeast cells (assay: flow cytometry on yeast cells displaying human CD137, PE anti-human Fc (column head prints EC50 over KD (nM))).
Procedure: as §1

Going from B1 to B2, the Kd rises from 0.28 nM to 10.8 nM (39-fold).

B3 and B4 are within 1.5-fold of each other in Kd: 5.86 nM for the first, 8.61 nM for the second.

Compared with B5, B6 is 4.2-fold lower in Kd: 98.1 nM for the first, 23.6 nM for the second.

For B7, the Kd was 107 nM.

The binders below were run against T2, Recombinant human CTLA4-Fc (assay: ELISA on plate-coated recombinant human CTLA4-Fc, before protease cleavage, data batch 1).
Procedure: as §2

First: B9
Second: B8
The “masking efficiency (EC50 / EC50 of parental TY21580)” value of the first is higher: 2210 fold for the first, 826 fold for the second.

In the case of B16, the “masking efficiency (EC50 / EC50 of parental TY21580)” value is reported as 110 fold.
